Experimental data: paper PMC9249326 (2022)

Tests used:
[1] = biological target: T1, 6xHis-tagged human NGF (nerve growth factor) (human, UniProt P01138 19-241); assay: BLI
[2] = biological target: T1, 6xHis-tagged human NGF (nerve growth …); assay: BLI; remark: listed apart in the source

T1 sequence (P01138 122-241): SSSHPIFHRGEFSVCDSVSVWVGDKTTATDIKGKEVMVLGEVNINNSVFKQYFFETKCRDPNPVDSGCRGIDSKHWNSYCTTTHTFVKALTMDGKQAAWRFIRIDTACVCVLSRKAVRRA

B1: tanezumab (antibody, V domains shown)
VH: QVQLQESGPGLVKPSETLSLTCTVSGFSLIGYDLNWIRQPPGKGLEWIGIIWGDGTTDYNSAVKSRVTISKDTSKNQFSLKLSSVTAADTAVYYCARGGYWYATSYYFDYWGQGTLVTVSS
VL: DIQMTQSPSSLSASVGDRVTITCRASQSISNNLNWYQQKPGKAPKLLIYYTSRFHSGVPSRFSGSGSGTDFTFTISSLQPEDIATYYCQQEHTLPYTFGQGTKLEIK
B1 was tested. Which koff [1] did it give?
The koff was < 1e-07 s⁻¹.

What about the Kd [2] of the same binder?
The Kd was < 1 pM.
